Source: article PMC2199173

Target: purified soluble human FasL (AL-1) (human)
Test: SEC

Substance “purified soluble human FasL (AL-1) (ligand)” has a stoichiometry N of 3.
